Experimental data from publication PMC11235169 (2024).
Blank lines part the entries; values can stand above or below the binder they belong to.

How the values were obtained:
[1] = target: T1, recombinant sushi domain protein; test: FP
T1 chain: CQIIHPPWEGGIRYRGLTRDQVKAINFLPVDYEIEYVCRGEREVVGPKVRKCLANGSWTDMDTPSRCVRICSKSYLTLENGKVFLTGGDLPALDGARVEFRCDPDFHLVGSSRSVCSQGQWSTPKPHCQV

[2] = target: T1, recombinant sushi domain protein; test: ITC
TMR-hAJAP17 (human) = target: T2, TMR-hAJAP17 (human); test: fluorescence polarisation; saturation binding: sushi domain protein (0.73 to 1500 nM) added to TMR-hAJAP17 (25 nM); 20 mM NaPi pH 6.8, 50 mM NaCl, 0.5 mM EDTA, 1% BSA, 25°C; one-site binding model
T2 chain: ETEFIAWGPTGDEEALE

[3] = target: recombinant sushi domain protein; test: ITC; 100 μM hAJAP17 or 300 μM W183C peptide injected into 10 or 30 μM sushi domain protein in the cell; 25°C; 20 mM NaPi pH 7.4; one-site binding model
[4] = target: recombinant sushi domain protein; test: fluorescence polarisation; competition: preformed complex of sushi domain protein (40 nM) and TMR-hAJAP17 (25 nM) outcompeted with unlabeled peptides (0.006 to 6.25 μM or 0.03 to 62.5 μM); 20 mM NaPi pH 6.8, 50 mM NaCl, 0.5 mM EDTA, 1% BSA, 25°C; Ki calculated from sigmoidal dose-response fits

Ki [1]: 49.3 µM
Kd [2]: 46.7 µM
Binder: ETEFIACGPTGDEEALE [hAJAP17-W183C]

Ki [1]: 44.8 µM
B1: mAJAP17-W183C (peptide)
chain: ETEFIACGPTGDEDALE
modifications: Limits taken by alignment with the printed human 17-mer … (177-193, W183 at position 7; W183 has the same number in mouse). C-terminal amide is likely, as printed for the TMR-hAJAP17 peptide, but is not stated for this one

Kd (TMR-hAJAP17 (human)): 0.0204 µM
B2: recombinant sushi domain protein (domain or fragment)
chain: T1 chain
modifications: not checked

Kd [3]: 0.047 µM
stoichiometry N [3]: 1
Ki [4]: 0.06 µM
Binder: ETEFIAWGPTGDEEALE [hAJAP17]
